# In the Human Domainome abundance scans (Beltran et al. 2025):
# ± gives the uncertainty stated by the source.
# Test: abundance fitness (aPCA) (normalised: wild type 0, dead -1); higher = more abundant; growth selection in yeast, the domain comes from the species named
# Details: Saccharomyces cerevisiae (strain ATCC 204508 / S288c)
row,Substance,abundance fitness
1,"E3 ubiquitin-protein ligase RSP5 S328K, P39940",0.083 ± 0.055
2,"E3 ubiquitin-protein ligase RSP5 S328M, P39940",0.099 ± 0.067
3,"E3 ubiquitin-protein ligase RSP5 S328N, P39940",0.1 ± 0.071
4,"E3 ubiquitin-protein ligase RSP5 S328P, P39940",-0.025 ± 0.064
5,"E3 ubiquitin-protein ligase RSP5 S328R, P39940",-0.095 ± 0.044
6,"E3 ubiquitin-protein ligase RSP5 S328T, P39940",-0.018 ± 0.12
7,"E3 ubiquitin-protein ligase RSP5 S328V, P39940",-0.07 ± 0.055
8,"E3 ubiquitin-protein ligase RSP5 S328Y, P39940",0.036 ± 0.098
9,"E3 ubiquitin-protein ligase RSP5 S335A, P39940",-0.063 ± 0.044
10,"E3 ubiquitin-protein ligase RSP5 S335C, P39940",-0.147 ± 0.07
11,"E3 ubiquitin-protein ligase RSP5 S335D, P39940",0.205 ± 0.14
12,"E3 ubiquitin-protein ligase RSP5 S335E, P39940",-0.031 ± 0.053
13,"E3 ubiquitin-protein ligase RSP5 S335F, P39940",-0.205 ± 0.11
14,"E3 ubiquitin-protein ligase RSP5 S335G, P39940",-0.108 ± 0.052
15,"E3 ubiquitin-protein ligase RSP5 S335H, P39940",-0.079 ± 0.066
16,"E3 ubiquitin-protein ligase RSP5 S335K, P39940",-0.049 ± 0.045
17,"E3 ubiquitin-protein ligase RSP5 S335L, P39940",-0.202 ± 0.046
18,"E3 ubiquitin-protein ligase RSP5 S335M, P39940",-0.086 ± 0.063
19,"E3 ubiquitin-protein ligase RSP5 S335N, P39940",-0.015 ± 0.084
20,"E3 ubiquitin-protein ligase RSP5 S335P, P39940",0.047 ± 0.38
21,"E3 ubiquitin-protein ligase RSP5 S335Q, P39940",-0.094 ± 0.051
22,"E3 ubiquitin-protein ligase RSP5 S335R, P39940",-0.129 ± 0.051
23,"E3 ubiquitin-protein ligase RSP5 S335T, P39940",-0.247 ± 0.087
24,"E3 ubiquitin-protein ligase RSP5 S335V, P39940",-0.141 ± 0.051
25,"E3 ubiquitin-protein ligase RSP5 S335W, P39940",-0.278 ± 0.064
26,"E3 ubiquitin-protein ligase RSP5 S335Y, P39940",-0.33 ± 0.087

row,Substance,abundance fitness
1,"E3 ubiquitin-protein ligase RSP5 T326A, P39940",-0.023 ± 0.05
2,"E3 ubiquitin-protein ligase RSP5 T326C, P39940",-0.033 ± 0.07
3,"E3 ubiquitin-protein ligase RSP5 T326D, P39940",0.094 ± 0.068
4,"E3 ubiquitin-protein ligase RSP5 T326E, P39940",0.055 ± 0.052
5,"E3 ubiquitin-protein ligase RSP5 T326F, P39940",-0.02 ± 0.09
6,"E3 ubiquitin-protein ligase RSP5 T326G, P39940",-0.18 ± 0.048
7,"E3 ubiquitin-protein ligase RSP5 T326H, P39940",-0.051 ± 0.078
8,"E3 ubiquitin-protein ligase RSP5 T326I, P39940",-0.266 ± 0.2
9,"E3 ubiquitin-protein ligase RSP5 T326K, P39940",0.068 ± 0.051
10,"E3 ubiquitin-protein ligase RSP5 T326L, P39940",-0.023 ± 0.048
11,"E3 ubiquitin-protein ligase RSP5 T326M, P39940",0.008 ± 0.07
12,"E3 ubiquitin-protein ligase RSP5 T326N, P39940",0.105 ± 0.087
13,"E3 ubiquitin-protein ligase RSP5 T326P, P39940",-0.652 ± 0.079
14,"E3 ubiquitin-protein ligase RSP5 T326Q, P39940",-0.071 ± 0.057
15,"E3 ubiquitin-protein ligase RSP5 T326R, P39940",-0.068 ± 0.042
16,"E3 ubiquitin-protein ligase RSP5 T326S, P39940",0.014 ± 0.054
17,"E3 ubiquitin-protein ligase RSP5 T326V, P39940",-0.008 ± 0.051
18,"E3 ubiquitin-protein ligase RSP5 T326W, P39940",-0.207 ± 0.08
19,"E3 ubiquitin-protein ligase RSP5 T326Y, P39940",-0.061 ± 0.072
20,"E3 ubiquitin-protein ligase RSP5 T327A, P39940",-0.049 ± 0.046
21,"E3 ubiquitin-protein ligase RSP5 T327C, P39940",-0.001 ± 0.06
22,"E3 ubiquitin-protein ligase RSP5 T327D, P39940",0.121 ± 0.07
23,"E3 ubiquitin-protein ligase RSP5 T327E, P39940",0.105 ± 0.056
24,"E3 ubiquitin-protein ligase RSP5 T327G, P39940",-0.037 ± 0.046
25,"E3 ubiquitin-protein ligase RSP5 T327H, P39940",0.019 ± 0.16
26,"E3 ubiquitin-protein ligase RSP5 T327L, P39940",-0.049 ± 0.055

row,Substance,abundance fitness
1,"E3 ubiquitin-protein ligase RSP5 T327M, P39940",0.103 ± 0.077
2,"E3 ubiquitin-protein ligase RSP5 T327N, P39940",0.12 ± 0.12
3,"E3 ubiquitin-protein ligase RSP5 T327P, P39940",-0.258 ± 0.068
4,"E3 ubiquitin-protein ligase RSP5 T327Q, P39940",-0.112 ± 0.057
5,"E3 ubiquitin-protein ligase RSP5 T327R, P39940",-0.067 ± 0.044
6,"E3 ubiquitin-protein ligase RSP5 T327S, P39940",0.038 ± 0.05
7,"E3 ubiquitin-protein ligase RSP5 T327W, P39940",-0.17 ± 0.053
8,"E3 ubiquitin-protein ligase RSP5 T327Y, P39940",-0.639 ± 0.27
9,"E3 ubiquitin-protein ligase RSP5 T342D, P39940",0.173 ± 0.076
10,"E3 ubiquitin-protein ligase RSP5 T342E, P39940",-0.377 ± 0.05
11,"E3 ubiquitin-protein ligase RSP5 T342G, P39940",-0.255 ± 0.045
12,"E3 ubiquitin-protein ligase RSP5 T342H, P39940",-0.455 ± 0.3
13,"E3 ubiquitin-protein ligase RSP5 T342K, P39940",-0.824 ± 0.058
14,"E3 ubiquitin-protein ligase RSP5 T342L, P39940",-0.074 ± 0.065
15,"E3 ubiquitin-protein ligase RSP5 T342M, P39940",-0.327 ± 0.17
16,"E3 ubiquitin-protein ligase RSP5 T342N, P39940",-0.225 ± 0.13
17,"E3 ubiquitin-protein ligase RSP5 T342P, P39940",-0.556 ± 0.074
18,"E3 ubiquitin-protein ligase RSP5 T342Q, P39940",-0.226 ± 0.067
19,"E3 ubiquitin-protein ligase RSP5 T342R, P39940",-0.738 ± 0.044
20,"E3 ubiquitin-protein ligase RSP5 T342V, P39940",-0.315 ± 0.047
21,"E3 ubiquitin-protein ligase RSP5 T342W, P39940",-0.865 ± 0.054
22,"E3 ubiquitin-protein ligase RSP5 T354A, P39940",-0.152 ± 0.052
23,"E3 ubiquitin-protein ligase RSP5 T354C, P39940",-0.196 ± 0.088
24,"E3 ubiquitin-protein ligase RSP5 T354E, P39940",-0.163 ± 0.054
25,"E3 ubiquitin-protein ligase RSP5 T354F, P39940",-0.374 ± 0.093
26,"E3 ubiquitin-protein ligase RSP5 T354G, P39940",-0.223 ± 0.043

row,Substance,abundance fitness
1,"E3 ubiquitin-protein ligase RSP5 T354H, P39940",0.187 ± 0.14
2,"E3 ubiquitin-protein ligase RSP5 T354K, P39940",-0.147 ± 0.082
3,"E3 ubiquitin-protein ligase RSP5 T354L, P39940",-0.266 ± 0.049
4,"E3 ubiquitin-protein ligase RSP5 T354P, P39940",-1.07 ± 0.078
5,"E3 ubiquitin-protein ligase RSP5 T354Q, P39940",-0.165 ± 0.056
6,"E3 ubiquitin-protein ligase RSP5 T354R, P39940",-0.219 ± 0.044
7,"E3 ubiquitin-protein ligase RSP5 T354S, P39940",-0.049 ± 0.049
8,"E3 ubiquitin-protein ligase RSP5 T354V, P39940",-0.445 ± 0.043
9,"E3 ubiquitin-protein ligase RSP5 T354W, P39940",-0.658 ± 0.065
10,"E3 ubiquitin-protein ligase RSP5 T356A, P39940",-0.237 ± 0.048
11,"E3 ubiquitin-protein ligase RSP5 T356C, P39940",0.032 ± 0.064
12,"E3 ubiquitin-protein ligase RSP5 T356D, P39940",-0.405 ± 0.08
13,"E3 ubiquitin-protein ligase RSP5 T356E, P39940",-0.3 ± 0.054
14,"E3 ubiquitin-protein ligase RSP5 T356G, P39940",-0.465 ± 0.044
15,"E3 ubiquitin-protein ligase RSP5 T356H, P39940",-0.483 ± 0.23
16,"E3 ubiquitin-protein ligase RSP5 T356I, P39940",0.404 ± 0.26
17,"E3 ubiquitin-protein ligase RSP5 T356K, P39940",-0.225 ± 0.066
18,"E3 ubiquitin-protein ligase RSP5 T356L, P39940",-0.143 ± 0.047
19,"E3 ubiquitin-protein ligase RSP5 T356M, P39940",-0.005 ± 0.066
20,"E3 ubiquitin-protein ligase RSP5 T356N, P39940",-0.285 ± 0.18
21,"E3 ubiquitin-protein ligase RSP5 T356P, P39940",-0.96 ± 0.069
22,"E3 ubiquitin-protein ligase RSP5 T356Q, P39940",-0.121 ± 0.05
23,"E3 ubiquitin-protein ligase RSP5 T356R, P39940",-0.32 ± 0.042
24,"E3 ubiquitin-protein ligase RSP5 T356S, P39940",0.034 ± 0.05
25,"E3 ubiquitin-protein ligase RSP5 T356V, P39940",-0.124 ± 0.052
